Assay [1] concerns the target SARS-CoV-2 Omicron BA.1 variant spike protein (SARS-CoV-2 (Omicron BA.1 variant)). Description: cell-based or functional assay.
Assay [2] has as its target T1, SARS-CoV-2 Delta RBD (Delta_RBD-Avi-His) (SARS-CoV-2 (Delta variant)). Nature of the assay: BLI, biotinylated RBD, mass transport model fit. On the technique in general: In BLI a coated tip is dipped into the sample, and binding shifts an interference pattern.
Assay [3] has as its target SARS-CoV-2 Omicron BA.1 RBD (Omicron_BA.1_RBD-AviHis) (SARS-CoV-2 (Omicron BA.1 variant)). Description: BLI, biotinylated RBD, mass transport model fit.
Assay [4] deals with SARS-CoV-2 Omicron BA.2.75 RBD (Omicron_BA.2.75_RBD-AviHis) (SARS-CoV-2 (Omicron BA.2.75 variant)). Nature of the assay: BLI, biotinylated RBD, mass transport model fit.
In assay [5] the target is SARS-CoV-2 Omicron BA.5 RBD (Omicron_BA.5_RBD-AviHis) (SARS-CoV-2 (Omicron BA.5 variant)). Nature of the assay: BLI, biotinylated RBD, mass transport model fit.
For assay [6], the target named is SARS-CoV-2 Delta variant spike protein (SARS-CoV-2 (Delta variant)). Description: cell-based or functional assay.
The target of assay [7] is T1, SARS-CoV-2 Delta RBD (Delta_RBD-Avi-His). Nature of the assay: BLI, biotinylated RBD.

B1: Ma28D01 (VHH)
VHH: QVQLVESGGGLVQPGGSLRLSCVVSELGLDYYQIGWFRQAPGKEREGVSCFRSSDEIRYYADSVKGRFTTFRDNAGTTVYLQMNSLKPEDTGVYYCAVAPQTYYHGTWYGECAAAGMDSWGKGTQVTVSS
notes: Monomeric VHH
With B1, the “Lowest virus neutralizing concentration (pM; IC99)” value in assay [1] is 1700 pM. Moreover, the Kd is 0.015 nM in assay [2], 0.2 nM in assay [3], 0.3 nM in assay [4] and 0.03 nM in assay [5].

B2: Ma28F04 (VHH)
VHH: QVQLVESGGGLVQPGGSLRLSCVVSDLGLDYYQIGWFRQAPGKEREGVSCFRSSDEIRYYADPVKGRFTTFRDNAGTTVYLQMNSLKPEDTGVYYCAVAPQTYYHGTWYGECAAAGMDSWGKGTLVTVSS
notes: Monomeric VHH
Turning to B2, the “Lowest virus neutralizing concentration (pM; IC99)” value in assay [6] and in assay [1] was 500 pM throughout. Besides, the Kd in assay [2] was found to be 0.03 nM; in assay [3], 0.15 nM; in assay [4] it was 0.2 nM; in assay [5], 0.03 nM.

B3: Ma16B06 (VHH)
VHH: QVQLVESGGGLVRTGGSLRLSCAASGSILQIWAMKWYRQAPGLQREWIATIPNSGEPFYASSVEGRFTGSRENEETVYLYLNNLEPEDTAVYYCEVNEGVPVREYWGQGTQVTVSS
notes: Monomeric VHH; also called VHH Ma16B06
On to B3, for which the binding result in assay [7] is recorded as “no binding”. For the same molecule, the “Lowest virus neutralizing concentration (pM; IC99)” value is > 5000 pM in assay [6] and 50 pM in assay [1]. Moreover, the Kd in assay [3] stood at 0.04 nM; in assay [4], 0.06 nM; in assay [5], 20 nM.

B4: Ma28H11 (VHH)
VHH: QVQLVESGGGLVQPGGSLRLSCATSGLTLDHYAIGWFLQAPGKEREGVACVSDDERSLYAPSVMGRFSISRDNAKKTFYLEMNSLKPEDTGVYYCASGPVVPGTLCRIPTVLGYDDWGQGTQVTVSS
notes: Monomeric VHH; also called M28H11
As to B4, the “Lowest virus neutralizing concentration (pM; IC99)” value in assay [6] was 50 pM; in assay [1], > 5000 pM. For the same molecule, the Kd in assay [2] came to 0.03 nM; in assay [3], 30 nM; in assay [4] it was 0.6 nM; in assay [5], 0.3 nM.

A word on the Kd: it is the equilibrium constant for the complex coming apart. A low value points to a tighter complex.

These data come from patent EP4375293A1 (Max-Planck-Gesellschaft zur Förderung der Wissenschaften …, dated 2024).
